Values of other authors as cited in paper PMC5053023.

Target: SRSF1 RS domain (Homo sapiens) (UniProt Q07955)
UniProt Q07955, sequence (Q07955 198-248): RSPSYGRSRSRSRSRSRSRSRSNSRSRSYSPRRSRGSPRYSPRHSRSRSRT

Kd: 100 nM
Substance: SRPK1 (from UniProt Q96SB4)
